Data from the nanobody polyreactivity screen of Harvey et al. (2022).

Assay: yeast display, Sf9 membrane polyspecificity reagent, FACS + sequencing; frameworks hold sequencing errors
How it was run: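 A synthetic nanobody library was expressed on Saccharomyces cerevisiae BJ5465 by galactose induction for 36–48 hours. The library was stained for 1 hour at 4 °C with 10% biotinylated, detergent-solubilized Sf9 membrane reagent and enriched with streptavidin microbeads before FACS. Low and high (top ~1%) gates were set on anti-HA fluorescence for expression and streptavidin fluorescence for reagent binding, and each polyreactivity label reflects the gate of origin.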

| Sequence | polyreactivity (PSR sort gate) |
| --- | --- |
| QVQLVESGGGLVQAGGSLRLSCAASGSTFPYNAKGWYRQAPGKERELVAAITTRGSTYYADSVKGRFTISRDNAKNTVYLQMNSLNPEESAVYYCANGPSLWYRSSFRGEGDYWGQGTQVTVSS | low polyreactivity |
| QVQLVESGGGLVQAGGSLRLSCAASGITSSYAMGWYRQAPGKERELVAAISRGGSTYYADSVKGRFTISRDNAKNTVYLQMNSLKPEDTAVYYCNKRRYPYGWGQGTQVTVSS | high polyreactivity |
| QVQLVESGGGLVQAGGSLRLSCAASGINFSEYAMGWSRQAPGKERELVAVITSGGSTYYADSVKGRFTISRDNAKNTVYLQMNSLKPEDTAVYYCAARTAYASRYVNVPYYYWGQGTQVTVSS | high polyreactivity |
| QVQLVESGGGLVQAGGSLRLSCAASGSIFSVNAMGWYRQAPGKERELVAGITISGGRTYYADSVKGRFTISRDNAKNTVYLEMNSLKPEDTAVYYCAADWVYPPGLKDSVHFGEYDYWGQGTQVTVSS | low polyreactivity |
| QVQLVESGGGLDQAGGSLRLSCAASGRTFGYNAMGWYRQAPGKERELVAAINWSGASTYYADSVKGRFTISRDNAKNTVYLQMNSLKPEDTAVYYCAARRKRVSFFPEYDYWGQGTQVTVSS | low polyreactivity |
| QVQLVESGGGLVQAGGSLRLSCAASGSILRVNAMGWYRQAPGKEREVVAAISSGGITNYADSVKGALHNFTRQCEEYRLFTDEQPETGTYRGQFCARTYRNPASAGSLVVRYPYDYWGQGTQVTVTS | low polyreactivity |
| QVQLVESGGGLVQAGGSLRLSCAASGRTFAIYAMGWSRQAPGKERELVAAIRWRDGSTYYADSVKGRFTISRDNAKNTVYLQMNSLKPEDTAVYYCAATSRVYVRGSYWKYGYWGQGTQVTVSS | high polyreactivity |
| QVQLVESAGGLVQAGGSLSLSCAASGSIFWSYAMGWYRQAPGKERELVAVINWSGGSTYYADSVKGRFTISRDNAKNTVYLQMNSLKPEDTAVYYCNKDLGPTKRPFTFDYWGQGTQVTVSS | low polyreactivity |
| QVQLVESGGGLVQAGGSLRLSCAPSGSIFGYYTMGCYRQAPGKEREFVAAISYSGGSTYYADSVKGRFTISRDNANNTVYLQMNSLKPEDTAVYYCAARLYYFRGFKYYYWGQGTQVTVSS | low polyreactivity |
| QVQLVESGGGLVQAGGSLRLSCAASGFTFNWNDMGWYRQAPGKERELVAAISGGASTYYADSVKGRFTISRDNAKNTVYLQMNSLKPEDTAVYYCAADLDEWGYLFVYWGQGTQVTGSS | low polyreactivity |
| QVQLVESGGGLVQAGGSLRLSCAASGRIFRKNVMGWYRQAPGKERELVATIRTGGTTNYADSVKGRFTISRDNAKNTVYLQMNSLKPEDTAVYYCAADRGGRAGFDYWGQGTQVTVSS | high polyreactivity |
| QVQLVESGGGLVQAGGSLRLSCAASGRIYWWYAMGGSRQEPGKERELVAGISWSGGSTYYADSVKGRFTISRDNAKNTVYLQMNSLKPEDSAVYYCNAQYASGRSYFFYWHRFDYGGQGTQVTVSS | high polyreactivity |
| QVQLVESGGGLVQAGGSLRLSCAASGRTFLYYAMGWDRPAPGKERELVAAITRGGGSTYYADSVKGRFTISRDNAKNTVYLPMNSLKPEDTAVYYCAVEYRVDYYVEYDYWGQGTQVTVSS | high polyreactivity |
| QVQLVESGGGLVQAGGSLRLSCPASGRIFYRYAMGWYRQEPGKERELVADITWRGGRTYYADSVKGRFTISRDNAKNTVYLQMNSLKPEDTAVYYCAATGGFSWSRDYWGQGTQVTVSS | low polyreactivity |
| QVQLVESGGGLVQAGGSLRLSCAASGITFLNYAMGWYRQAPGKERELVAAIDTRGGRTNYADSVKGRFTISRDNAKNNVYLQMNSLKPEDTAVYYCAADPFYWYRSVRGEYWGQGSQVTVSS | low polyreactivity |
| QVQLVESGGGLVQPGGSLRLSCAASGSTFLVYAMGWYRQAPGKERELVAVIDNGGDTYYADSVKGRFTISRDNAKNTVYLPMNSMKPEDTEVYYCAADLSYLGYCEYDYWGQGTQVNVSS | low polyreactivity |

| Sequence | polyreactivity (PSR sort gate) |
| --- | --- |
| QVQLVESGGGLVQAGGSLRLSCAASGSTFWFNAMGWYRQAPGKERELVAISGSVGSTYADSVKGRFTISRDNAKNTVYLQMNSLKPEDTAVYYCNADSVWYRNPWSFSPRYNYWGQGTQVTVSS | low polyreactivity |
| QVQHVESGGGLVQAGGILRLSSAASGSTFVKNGMGWSRQAPGKERELVAAISGRRGSTYYADSVKGRFTISRDNAKNTVYLQMNSLKPEDTAVYYCNKAYSVAYTYNYWGQGTQVTVSS | high polyreactivity |
| QVQLVESGGGLVQAGGSLRLSCAASGRIFGYYAMGWYRQAPGKERELVAAISRSGSSTYYADSVKGRFTISRDNAKNTVYLQMNSLKPEDTAVYYCNSEKYYRAYLLPFNYWGQGTQVTVSS | high polyreactivity |
| QVQLVESGGGLVQAGGSLRLSCASSGLTLQYYAMGWYRQAPGKERELVAAITYSGGSTYYADSVKGRFTISRDNAKNTVYLQRNSLKPEDTGVYYCAKVPVRSGGTLYDYWGQGTQVTVSS | low polyreactivity |
| QVQLVESGGGLVQAGGSLRLSCAASGSTFGVYARGWYRQAPGKERELVAAIRDRGGSTYYADSVKGRFTISRDNAKNTVYLQMNSLKPEDTAVYYCATRTWWEYYYWGQGTQVTVSS | high polyreactivity |
| QVQLVESGGGLVQAGGSLRLSCAASGTFARYAMGWYRQAPGKERELVAAISRRGGSTYYADSVKGRFTISRDNAKNTVYLQMNSLKPEDTAVYYCAADNTQVRPKYDYWGQGTQVTVSS | high polyreactivity |
| QVQLVESGGGLVQAGGSLRLSCAASGRIFSRNAMGWYRQAPGKERELVAAISSSAGSTYYADSVKGRFTISRDNAKHTVYLQMNSLKPEDTAVYYCGAESVGDMDYWGQGTQVSVSS | low polyreactivity |
| QFQLVESGGGLVQAGGSLRLSCAASGSTFIYYAMGWYRQAPGKDRELVAAISGCGASTYYADSVKGGFTISRDNAKNTVYLQMNSLKPEDTAVYYCHFYRWRGYDYWGQGTQVTVSS | high polyreactivity |
| QVQLVESGGGLVQAGGSLRLSCAASGPIFLRYAIGWYRQAPGKERVLVAVISRSGSSTYYADSVKGRFTISRDNAKNTVYLQMNSLKPEDTAFYHCAAGYSWGYSSQKLRYGYLGQGTQVTVSS | high polyreactivity |
| QVQLVESGGGLVQAGGSLRLSCAASGGIFYDYAMGWYRQAPGKERELVAAISQSGGSTYYADSVKGRFTISRDNAKNTVYLQMNSLKPEDTAVYYCAADYLDSTYGYVYGWDDSWGQGTQVTVSS | low polyreactivity |
| QVQLVESGGGLVQAGGRLRLSCAASGSIFFGNVIGWYRQAPGKEREWVAAINTDGRTYYADSVKGRFTISRDNAKNTVYLQMNSLKPEDTAVYYCAKAVWWSLPAQKSYLYYYWGQGTQVTVSS | high polyreactivity |
| QVQLVESGGGLVQAGGSLRLSCAASGRIFLTNAMGSYRQAPGKERELVAAIRFSGGRTYYADSVKGRFTISRDNAKNTVYLQMNSLKPEDNAVYYCAADPPRTRYRNARFDYWGQGTQVTVSS | high polyreactivity |
| QVQLVESGGGLVQAGGSLRLSCAASGFIFYDYVMGWYRQAPGKERELVAAISASGGSTYYADSVKGRFTISRDNAKNTVYLQMNCLKPEDTAVYYCNARPKYDSGHYYWGQGTQVTVSS | high polyreactivity |
| QVQLVESGGGLVQAGGSLRLSCAASGSIFSRYTLGWYRQAPGKVRELVARINSSGTSTYYADSLKGRFTISRDKAKNTVYLQMNSLKPEDTAVYYCARTSRHVRYDYWGQGTQVTVSS | low polyreactivity |
| QVQLVESGGGIVQAGGSLRLSCAASGITFEYNAIGWYRQAPGKARELVAAISQSSGSTYYADSVKGRFTISRDYAKNTVYLQMNSLKPEDTAVYYCNADTIIYEGGYWGQGTQVTVSS | low polyreactivity |
